Laboratory results as given in a protein production outcome set (Wang et al. 2014).

Experiment: label from the status in PepcDB records

Row | Sequence | protein production
1 | MTPHKQLILGGEQAFVGNVASGDFKNRPCPSDLGDIPGTVNPPEGRNPSQDFGQRWDWIQLNAEHMKFSSVSEEKPGLLAPPAQPLTKMFQGAWLCWASLLLLVRVTQPCPVGCDCFDRKIFCSDEQLAAIPLDIPSHVTDIVFVETSFTTVGTRAFSGSPNLTKVVFLNTRVHHLEPDAFGGLPRLEDLEVTGSPFSNLSANIFSNLSSLGKLTLDFNRLAALPEDLFHHMDTLESLQLQGNQLQTLPGRLFQSLRYLRTLNLAQNLLTQLPKGMFQSLSSLQILKLSDNMFARLPEGVLSNLGSLQELFLDSNAITELSPHLFSHLLSLEKLWLQHNAISLLPVSAFSSLRNLTFLNLKDNALRTLPAGLFTHNPGLLHLSLSYNQLETVPEGSFANLRKLASLTLSHNAITHLPENVFRNLEQLVKLSLDSNNLTVLHPTLFHNLSKLQLLDLSRNQLTMLPGGIFDTNYDLFNLALLGNPWQCDCRLSYLTSWLRLYNDRIFNTHTFCAGPAYLKGQLVPNLKQEQLVCPGNPGQLGLDDREPAGSWDLAVEGRAAHRQCIYGNPEGTVLLACEEAQCRWLNIQLSSREGSDVTAMAYNSSQEWELRSTCGSVRVTVSIEAQAAGP | failed
2 | MFQISFMSKQLQDLIDRELMNASSLVKKGKYEKALEKLNKAERLAEKAKNSELFCRVLLHKGEILDSMEKSREALLQYEKALEISLRFFMSDPQDSSSQRCLYNSIDLMENILNKIDDVSVAEKSYERTNKYFGKVIGTYEKLIAKYPENHYYLINYIITVKNLRGYLLNVGKSEKQIQLINSTLETFKEILNIQPENPEIFEKLDEFVKDLGEEFLDDELFENAKKIYEHLQGIYRGLLENYPDNELVLHYLIVSYGYFGNLYSRQRYLDRIEETYRPALSIVEDNLRKNPENTAFLENLGKIHEKIGVTYSEAKDQEKANSYYEKALANFVNLKGKASEDPDYQAELGKIFANLGERFETINRIENAAKSYLHKIEIYDSLFEEDPEDEDVKMDNIDTLMHIGNLYAEAGYTEPAKKYYEKAIEGYERLLSENPESTDFEIGISDILTALGDMYAKVGEEETEPEDAELETAREYYEKALKLNEKEFERYPDDLTCQDELIRTLGKLGDSFAVQDRYEDVIPFYRRIVEIKEQVVRDDPRRWLAVNSLTNFLYQLGSYYGKIEEVELERKQYSKAAELYSRALHDKNLQHQIKEVLAVEVQSHGTALLKSGKYNAAKEALDLALEFFENLYEEDPEDEENYPFICEALFQNGNLQRALENFEEAAKSFDSLLPIVEKLLESNPESPEARENAGVTYTNVGEVYSLNGEYEKSKQAFERALTINAVLLEEEPDNSLYKINQAQTFEKYAKLLSKLGRSEEAEDYSTKSEEIYRKLAEEDSDEGDINE | failed
3 | MRIEPRPLPETLPDLGDLPPLLARLYAARGVRCAEELDKGLARLIPYQRLKGIEEGVALLVDALEGGQRILIVGDFDADGATASSVGVLALRMLGAAWVDYLVPNRFEYGYGLTPEIVGVALEKRPDLLVTVDNGISSVDGVQAAKAAGLKVLVTDHHLPGPELPAADAIINPNQPGCEFPSKA | failed
4 | SQGDCSYSRTALYDLLGVPSTATQAQIKAAYYRQCFLYHPDRNSGSAEAAERFTRISQAYVVLGSATLRRKYDRGLLSDEDLRGPG | not failed
5 | MRGLSRNSGAAAIFAILLILAVHNWSVAVSSQSTEFAGDFPPFETECRGTIAECSVSAALGDGGDLFYGGGEMGEEFEMDSEINRRILATRRYISYGALRRNTIPCSRRGASYYNCRRGAQANPYSRGCSAITRCRRS | failed
6 | MNRRDFLQFGLRGIVVAGLGKGFYNTTSEQVEIVRTSVKIRNLPAALQGLKIGLLTDLHASFVVSSETIRSAGRLLMAEKPDLIVMTGDYISGSTRFLSGSVGQFKKEYLSKCIDALSGLKAPLGIYGVLGNHDFWSGPESVKAICEAFTRQMGMVWLRNSSVEIRRGRGSLHLLGVDDYWEPSCSLAAACKGVDTDGIKILLSHNPDINDEIFLLRERIDLVLSGHTHGGQVVVPFLGQPVMPSKFGQKYRAGLVRDGDRQTYISRGVGCLLAPIRLNCPPEATVLTLTLEHHHHHH | not failed
7 | MKLIIAIVQDKDSNRLSSQFIEANVRATKLSTTGGFLRSGNTTFMIGIDDDRVDEVLAMIKETSHAREQFMTPPVNLDVTMDGAAAYPVEVQVGGATVFVLPIEQFHQF | failed
8 | MGNKITVEVTVYAAIEKVWKYWNEPAHIMKWCQASPEWHVPAAQNDLKAGGTFTTTMAAKDGSMSFDFGGVYDQVKTNDLIEYTIGDGRKVRIVFTHTGDTTNIVESFDPEETNPRELQQSGWQAILNSFKSYTENNLEHHHHHH | not failed
9 | MNDDLSWMLDSALEIPGALHAVLISADGLLMARTQDFDKDDADRVAAAMSGVQSLSRTLAFFCEDPSQTWRQTLVEFDGGWVFLISAGEGAYLGVSASPEVDMADITFRMQQLVAQLGKRLTTPPRENLGARS | failed
10 | MPLVNSHIVEECLPFTSLRLDPEDINLSMGAGYVPDAEIQAISDALETEIAGICTPRFLYALFDAEPAGTCEVGVNGISLKTGSVITPYLKDAAGYVLFVATAGYEFEAFQHRIGSQGDILREFLLDAYGSAIAEAVVREVCRKVESRMFPLGYGVSHPYSPGYCGWHVTQQQLLFSCLPEFPCGVRLSDSSLMSPIKSVSGIIAYGPCIVKRKYGCELCGKADCYKNRNKLNRLEHHHHHH | not failed
11 | MDQESNATSQDILKQHAAHYESDMGGLPEALVQLAEYAPETFDAYSRMRTTMLKSEADGAKLPLKYKHLILVVLDAIRDEPIGIVNHTRAAMNAGLSVDELIEGILLGIIVYGMPAWGKTGRKAVTFAVEFEKELAGKRT | not failed
12 | MRAARLIKMVLLLQSRPTMTAAELARELEVSERTVTRDAQALSEAGVPVYAERGRAGGYRLVGGYRTRLTGLARGEAEALFLSGVPGALREMGLEDAASAARLKVSAALLPSLRDASRTAAQRFHLDAPNWFREPETPELLPAVADAVWDDRRVAARYRRGTDEVVRELEPYGLVLKAGVWYLCARVAGTAGDGPFRVYRIDRFTAVEAGEERFVRDDGFDLPAFWAERAEQFARSILRAEVVVRLSERGVRGLPYAVDALSAREALEAAGAPDADGWVTVALPVESEEVAHAQLRGLGPEVEVLAPAALRERFAREARRLAELYGG | failed
13 | MNSRLGTTASSITRSALPTTVVWDPAMTAYNFGPGHPMAPQRLELTARLAESLGLFNHNHVAVEAPTVATDVELFSVHSRDYVEAVRRVSADPSAPEEERGLGTEDDPAFAGMHEASARLAGGSLLAAETILSGQAVRAVNFSGGMHHAARERASGFCVYNDVALAIQKLLDGGVQRVVSIDVDAHHGDGTQSIFWNDPRVMTISLHETGLTLFPGTGFANETGGPDAPGTAVNVALPAFTGDAAWLRAFHAVVPQLVGAFQPEVIVSQHGCDSHRDDPLTHLNLSVDGQREAASAVAGLAARYCDNRWIATGGGGYDVTGVVPRAWSHLIGMVTQRPVPLKTPVPEAWRSYVKETYGVWAPESMSDDVDVWWRSWEVGYNPADEVDRTVIATRKEIFPLYGLDPWFD | failed
14 | MRELNRLSEEITHILAAGEVVERPASCLKEVIENSIDAGASLIDIKLEKGGIKKIEVYDNGKGIHSDDIEYVFERHTTSKIKSVDDIFKITTMGFRGEALCAISSVSKVTLISRHYEQEQGCKVEVEGGKVLSKTIYPFEKGTRITIEDLFYNTPARLKFLKSPSAEQKYCIEVVEKIAICYPEISFRMQVDNKRQLFTPGDSKVESAIASVFGSEILKNLIDFSHQEEGLKVWGFFVNPVLSKSTRSGYHFYVNRRFIRSKLLSTCIDEAFKNSILTGRFPIVFLFIEINPIDIDVNVHPAKLEIKFKDERYVYNTVYKTVSSTLQSEKMIPKPTLDNLYLPQSVQDVKMVRNLWSYTQEQQSKEKAFQEDFNEFLKIEEQLDFSKVEVGKESKDVITVFSEEFNVETYKIVGYAFDTYIIVQKEDSLYLIDQHAVHERRLFELLKEEIFRNKIQRQILLSPIVIELPISQKEFALENVHIFEKLGFEIDDFGKNEIVVRTYPLLFEGAVDKFFILDIIEMIYNESVEKGITHFSEELLKKIACRAAVKGNMNISDLEKEEIVKLVLVEKKIFNCPHGRPVVIEIQKREIEKMFKRIV | failed
